Results reported in publication PMC12053661.

B1: Spt6-3XFLAG (wild type) [S. cerevisiae (endogenous in strain S288c)] / Spn1 (wild type) [S. cerevisiae (endogenous in strain S288c)] (parent)
chain 1: MEETGDSKLVPRDEEEIVNDNDETKAPSEEEEGEDVFDSSEEDEDIDEDEDEARKVQEGFIVNDDDENEDPGTSISKKRRKHKRREREEDDRLSEDDLDLLMENAGVERTKASSSSGKFKRLKRVGDEGNAAESESDNVAASRQDSTSKLEDFFSEDEEEEESGLRNGRNNEYGRDEEDHENRNRTADKGGILDELDDFIEDDEFSDEDDETRQRRIQEKKLLREQSIKQPTQITGLSSDKIDEMYDIFGDGHDYDWALEIENEELENGNDNNEAEEEEIDEETGAIKSTKKKISLQDIYDLEDLKKNLMTEGDMKIRKTDIPERYQELRAGITDYGNMSSEDQELERNWIAEKISVDKNFDANYDLTEFKEAIGNAIKFITKENLEVPFIYAYRRNYISSREKDGFLLTEDDLWDIVSLDIEFHSLVNKKDYVQRFYAELHIDDPIVTEYFKNQNTASIAELNSLQDIYDYLEFKYANEINEMFINHTGKTGKKHLKNSSYEKFKASPLYQAVSDIGISAEDVGENISSQHQIHPPVDHPSSKPVEVIESILNANSGDLQVFTSNTKLAIDTVQKYYSLELSKNTKIREKVRSDFSKYYLADVVLTAKGKKEIQKGSLYEDIKYAINRTPMHFRRDPDVFLKMVEAESLNLLSVKLHMSSQAQYIEHLFQIALETTNTSDIAIEWNNFRKLAFNQAMDKIFQDISQEVKDNLTKNCQKLVAKTVRHKFMTKLDQAPFIPNVRDPKIPKILSLTCGQGRFGADAIIAVYVNRKGDFIRDYKIVDNPFDKTNPEKFEDTLDNIIQSCQPNAIGINGPNPKTQKFYKRLQEVLHKKQIVDSRGHTIPIIYVEDEVAIRYQNSERAAQEFPNKPPLVKYCIALARYMHSPLLEYANLTSEEVRSLSIHPHQNLLSSEQLSWALETAFVDIVNLVSVEVNKATDNNYYASALKYISGFGKRKAIDFLQSLQRLNEPLLARQQLITHNILHKTIFMNSAGFLYISWNEKRQKYEDLEHDQLDSTRIHPEDYHLATKVAADALEYDPDTIAEKEEQGTMSEFIELLREDPDRRAKLESLNLESYAEELEKNTGLRKLNNLNTIVLELLDGFEELRNDFHPLQGDEIFQSLTGESEKTFFKGSIIPVRVERFWHNDIICTTNSEVECVVNAQRHAGAQLRRPANEIYEIGKTYPAKVIYIDYANITAEVSLLDHDVKQQYVPISYSKDPSIWDLKQELEDAEEERKLMMAEARAKRTHRVINHPYYFPFNGRQAEDYLRSKERGEFVIRQSSRGDDHLVITWKLDKDLFQHIDIQELEKENPLALGKVLIVDNQKYNDLDQIIVEYLQNKVRLLNEMTSSEKFKSGTKKDVVKFIEDYSRVNPNKSVYYFSLNHDNPGWFYLMFKINANSKLYTWNVKLTNTGYFLVNYNYPSVIQLCNGFKTLLKSNSSKNRMNNYR
chain 2: MSTADQEQPKVVEATPEDGTASSQKSTINAENENTKQNQSMEPQETSKGTSNDTKDPDNGEKNEEAAIDENSNVEAAERKRKHISTDFSDDDLEKEEHNDQSLQPTVENRASKDRDSSATPSSRQELEEKLDRILKKPKVRRTRRDEDDLEQYLDEKILRLKDEMNIAAQLDIDTLNKRIETGDTSLIAMQKVKLLPKVVSVLSKANLADTILDNNLLQSVRIWLEPLPDGSLPSFEIQKSLFAALNDLPVKTEHLKESGLGRVVIFYTKSKRVEAQLARLAEKLIAEWTRPIIGASDNYRDKRIMQLEFDSEKLRKKSVMDSAKNRKKKSKSGEDPTSRGSSVQTLYEQAAARRNRAAAPAQTTTDYKYAPVSNLSAVPTNARAVGVGSTLNNSEMYKRLTSRLNKKHK
B2: Spn1 (wild type) [S. cerevisiae (endogenous in strain S288c)] / Spt6-3XFLAG (wild type) [S. cerevisiae (endogenous in strain S288c)] (parent)
chain 1: B1 chain 2
chain 2: B1 chain 1

Variants of: B1
Experiment: Spt6-3XFLAG affinity purification with quantitative mass spectrometry
Details: shift to non-permissive temperature, point at -log10 p-value about 3.5, read off a plot

Variant	screen value (log2 fold-change)
chain 1 F249K	-4.2

Variants of: B2
Experiment: as above
Details: with Spt6-3XFLAG (wild type) [S. cerevisiae (endogenous in strain S288c)]; shift to non-permissive temperature; point at -log10 p-value about 3.4; read off a plot

Variant	screen value (log2 fold-change)
chain 1 R263D	-4

Same assay, conditions: with Spt6-3XFLAG (wild type) [S. cerevisiae (endogenous in strain S288c)]; shift to non-permissive temperature; point at -log10 p-value about 3.5; read off a plot

Variant	screen value (log2 fold-change)
chain 1 F267E	-4.3
